This data set is described as follows: collision cross section of modified peptide (TIMS, N2, iRT-aligned); higher = larger / more extended gas-phase ion. The method in brief: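 Values are averages of 1–3 technical replicates of the most abundant feature for each charge state. Collision cross section was obtained from the Mason-Schamp equation after 1/K0 calibration with three reference ions and run-wise alignment to the median iRT peptide deviation. Synthetic peptide pools (iRT standard spiked 1:40) were separated on a 120-min nanoflow C18 gradient at 60 °C, analysed on a timsTOF Pro/HT (dda-PASEF, nitrogen, ~2.4 mbar) and identified with MaxQuant.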

[1] abbreviates: charge state: 3, modification: Glutarylation.
Where [2] appears, read: charge state: 3, modification: GlyGly (K).
[3] abbreviates: charge state: 3, modification: Methyl (K).
Where [4] appears, read: charge state: 3, modification: Succinyl.
The mark [5] stands for this setting: charge state: 3, modification: Trimethyl (K).
The mark [6] stands for this setting: charge state: 2, modification: hydroxyisobutyryl.
The mark [7] stands for this setting: charge state: 3, modification: hydroxyisobutyryl.
Setting [8] is: charge state: 2, modification: HexNAc (ST).
[9] abbreviates: charge state: 3, modification: HexNAc (ST).
[10] abbreviates: charge state: 2, modification: Nitro (Y).
[11] abbreviates: charge state: 2, modification: Phospho (Y).
Setting [12] is: charge state: 2, modification: Acetyl (K).
[13] abbreviates: charge state: 2, modification: Biotin.
[14] abbreviates: charge state: 2, modification: Butyryl.
Where [15] appears, read: charge state: 2, modification: Crotonyl.
Setting [16] is: charge state: 2, modification: Dimethyl (K).
Where [17] appears, read: charge state: 3, modification: Dimethyl (K).
The mark [18] stands for this setting: charge state: 2, modification: Formyl.
Where [19] appears, read: charge state: 2, modification: Glutarylation.
Where [20] appears, read: charge state: 2, modification: GlyGly (K).
Where [21] appears, read: charge state: 2, modification: Malonyl.
Setting [22] is: charge state: 2, modification: Methyl (K).
The mark [23] stands for this setting: charge state: 2, modification: Succinyl.
Setting [24] is: charge state: 2, modification: Trimethyl (K).

For 53 sequences, collision cross section results are on record in the supplement of paper PMC10598134.

± gives the standard deviation.

The sequence “TQDQISNIKYHEEFEK [_TQDQISNIK(Formyl)YHEEFEK_]” came in with a collision cross section (charge state: 3, modification: Formyl) of 551.65 ± 1.7 Å².

Under setting [1], “TQDQISNIKYHEEFEK [_TQDQISNIK(Gluratylation)YHEEFEK_]” yielded a collision cross section of 554.46 ± 0.14 Å².

“TQDQISNIKYHEEFEK [_TQDQISNIK(GlyGly (K))YHEEFEK_]” registered a collision cross section under setting [2] of 559.05 ± 0.57 Å².

Regarding “TQDQISNIKYHEEFEK [_TQDQISNIK(Malonyl)YHEEFEK_]”, the collision cross section (charge state: 3, modification: Malonyl) turned out to be 548.96 ± 0.016 Å².

Under setting [3], “TQDQISNIKYHEEFEK [_TQDQISNIK(Methyl (K))YHEEFEK_]” registered a collision cross section of 547.22 ± 0.37 Å².

Take “TQDQISNIKYHEEFEK [_TQDQISNIK(Succinyl)YHEEFEK_]”: the collision cross section under setting [4] is 549.89 ± 1.1 Å².

“TQDQISNIKYHEEFEK [_TQDQISNIK(Trimethyl (K))YHEEFEK_]” gave a collision cross section under setting [5] of 544.72 ± 0.9 Å².

As to “TQDQISNIKYHEEFEK [_TQDQISNIK(hydroxyisobutyryl)YHEEFEK_]”, the collision cross section by setting is: under setting [6], 492.05 Å²; under setting [7], 557.98 ± 1.2 Å².

Sequence TQSFSLQER [_T(HexNAc (ST))QSFSLQER_] yielded a collision cross section under setting [8] of 373.04 ± 0.83 Å².

In the case of “TSAVSSQANSQPPVQVSVK [_T(HexNAc (ST))SAVSSQANSQPPVQVSVK_]”, the collision cross section under setting [9] was 513.92 Å².

“TSAVSSQANSQPPVQVSVK [_TSAVSSQANSQPPVQVS(HexNAc (ST))VK_]” yielded a collision cross section under setting [8] of 471.02 Å².

Under setting [10], TSAYGPPTR [_TSAY(Nitro (Y))GPPTR_] displayed a collision cross section of 326.25 ± 1.1 Å².

In the case of TSAYGPPTR [_TSAY(Phospho (Y))GPPTR_], the collision cross section under setting [11] turned out to be 336.75 ± 0.067 Å².

Sequence “TSSEASVSSSVAK [_T(HexNAc (ST))SSEASVSSSVAK_]” returned a collision cross section under setting [8] of 394.41 ± 0.76 Å².

For the sequence TSYAQHQQVR [_TSY(Nitro (Y))AQHQQVR_], the collision cross section under setting [10] is 366.98 ± 0.94 Å² and the collision cross section (charge state: 3, modification: Nitro (Y)) came to 458.71 ± 1.2 Å².

With TSYAQHQQVR [_TSY(Phospho (Y))AQHQQVR_], the collision cross section is, setting by setting: under setting [11], 370.43 ± 0.064 Å²; (charge state: 3, modification: Phospho (Y)) 475.13 ± 0.98 Å².

In the case of TTEETSKPK [_TTEETSK(Acetyl (K))PK_], the collision cross section under setting [12] stood at 334.91 ± 0.21 Å².

Regarding TTEETSKPK [_TTEETSK(Biotin)PK_], the collision cross section under setting [13] was determined as 372.34 Å².

Under setting [14], TTEETSKPK [_TTEETSK(Butyryl)PK_] registered a collision cross section of 338.9 ± 1.2 Å².

Consider TTEETSKPK [_TTEETSK(Crotonyl)PK_], for which the collision cross section under setting [15] came to 346.33 ± 11 Å².

Take TTEETSKPK [_TTEETSK(Dimethyl (K))PK_]: the collision cross section reads like this: under setting [16], 338.18 ± 1.5 Å²; under setting [17], 409.31 Å².

Sequence TTEETSKPK [_TTEETSK(Formyl)PK_] displayed a collision cross section under setting [18] of 332.42 ± 4.9 Å².

With TTEETSKPK [_TTEETSK(Gluratylation)PK_], the collision cross section under setting [19] is listed as 352.76 ± 0.56 Å².

With TTEETSKPK [_TTEETSK(GlyGly (K))PK_], the collision cross section under setting [20] worked out at 355.85 ± 0.24 Å² and the collision cross section under setting [2] came to 431.05 ± 2.7 Å².

Regarding TTEETSKPK [_TTEETSK(Malonyl)PK_], under setting [21], the collision cross section is 336.7 ± 0.59 Å².

TTEETSKPK [_TTEETSK(Methyl (K))PK_] had a collision cross section under setting [22] of 342.29 ± 0.79 Å² and a collision cross section under setting [3] of 431.66 Å².

On to TTEETSKPK [_TTEETSK(Propionyl)PK_], for which the collision cross section (charge state: 2, modification: Propionyl) is recorded as 342.02 ± 0.39 Å².

In the case of TTEETSKPK [_TTEETSK(Succinyl)PK_], the collision cross section under setting [23] was determined as 347.17 ± 0.86 Å².

With TTEETSKPK [_TTEETSK(Trimethyl (K))PK_], the collision cross section under setting [24] is on record as 342 ± 0.055 Å².

The sequence “TTEETSKPK [_TTEETSK(hydroxyisobutyryl)PK_]” showed a collision cross section under setting [6] of 347.15 ± 3.9 Å².

In the case of “TTGFYSGFSEVAEKR [_TTGFYSGFSEVAEK(Acetyl (K))R_]”, the collision cross section is, setting by setting: under setting [12], 434.33 ± 1.7 Å²; (charge state: 3, modification: Acetyl (K)) 508.12 ± 0.12 Å².

Sequence “TTGFYSGFSEVAEKR [_TTGFYSGFSEVAEK(Butyryl)R_]” yielded a collision cross section under setting [14] of 442.26 ± 0.29 Å².

Under setting [15], “TTGFYSGFSEVAEKR [_TTGFYSGFSEVAEK(Crotonyl)R_]” displayed a collision cross section of 441.38 ± 0.77 Å².

“TTGFYSGFSEVAEKR [_TTGFYSGFSEVAEK(Dimethyl (K))R_]”: the collision cross section was 453.39 ± 1.3 Å² under setting [16] and 504.73 ± 0.75 Å² under setting [17].

As for “TTGFYSGFSEVAEKR [_TTGFYSGFSEVAEK(Formyl)R_]”, the collision cross section under setting [18] stood at 430.24 ± 0.79 Å².

With “TTGFYSGFSEVAEKR [_TTGFYSGFSEVAEK(Gluratylation)R_]”, the collision cross section under setting [19] was 443.45 ± 0.95 Å² and the collision cross section under setting [1] is 517.64 Å².

For “TTGFYSGFSEVAEKR [_TTGFYSGFSEVAEK(GlyGly (K))R_]”, the collision cross section was found to be 463.26 ± 1.6 Å² under setting [20] and 525.41 ± 1.1 Å² under setting [2].

“TTGFYSGFSEVAEKR [_TTGFYSGFSEVAEK(Malonyl)R_]” had a collision cross section under setting [21] of 440.22 ± 1.2 Å².

For “TTGFYSGFSEVAEKR [_TTGFYSGFSEVAEK(Methyl (K))R_]”, the collision cross section reads like this: under setting [22], 449.23 ± 2.4 Å²; under setting [3], 510.26 ± 2 Å².

For the sequence “TTGFYSGFSEVAEKR [_TTGFYSGFSEVAEK(Succinyl)R_]”, the collision cross section under setting [23] came out at 441.9 ± 0.5 Å² and the collision cross section under setting [4] came out at 512.39 ± 1.6 Å².

Consider “TTGFYSGFSEVAEKR [_TTGFYSGFSEVAEK(Trimethyl (K))R_]”, for which the collision cross section is, setting by setting: under setting [24], 459.26 Å²; under setting [5], 508.85 ± 1.6 Å².

Consider “TTGFYSGFSEVAEKR [_TTGFYSGFSEVAEK(hydroxyisobutyryl)R_]”, for which the collision cross section was 444.06 ± 0.8 Å² under setting [6] and 515.51 ± 0.49 Å² under setting [7].

“TTLTSDESVKDHTTAGR [_TTLTS(HexNAc (ST))DESVKDHTTAGR_]” returned a collision cross section under setting [9] of 545.39 ± 0.18 Å².

“TTSYPTPRPYPKPAPSSGK [_TTSYPTPRPYPKPAPS(HexNAc (ST))SGK_]” registered a collision cross section under setting [9] of 526.67 Å².

Sequence “TVQGPPGEPGR [_TVQGPPGEP(Hydroxyproline)GR_]” yielded a collision cross section (charge state: 2, modification: Hydroxyproline) of 345.67 ± 0.89 Å².

Sequence “TVSKVDDFLANEAK [_TVSK(Acetyl (K))VDDFLANEAK_]” registered a collision cross section under setting [12] of 417.71 ± 1.3 Å².

Take “TVSKVDDFLANEAK [_TVSK(Biotin)VDDFLANEAK_]”: the collision cross section under setting [13] amounted to 445.28 ± 0.73 Å².

“TVSKVDDFLANEAK [_TVSK(Butyryl)VDDFLANEAK_]” gave a collision cross section under setting [14] of 424.02 ± 0.86 Å².

Sequence “TVSKVDDFLANEAK [_TVSK(Crotonyl)VDDFLANEAK_]” had a collision cross section under setting [15] of 421.27 ± 0.55 Å².

In turn, “TVSKVDDFLANEAK [_TVSK(Dimethyl (K))VDDFLANEAK_]” came in with a collision cross section under setting [16] of 415.63 Å² and a collision cross section under setting [17] of 482.42 ± 2.9 Å².

Take “TVSKVDDFLANEAK [_TVSK(Formyl)VDDFLANEAK_]”: under setting [18], the collision cross section is listed as 415.84 ± 0.18 Å².

Sequence “TVSKVDDFLANEAK [_TVSK(Gluratylation)VDDFLANEAK_]” yielded a collision cross section under setting [19] of 427.28 ± 0.47 Å².

For the sequence “TVSKVDDFLANEAK [_TVSK(GlyGly (K))VDDFLANEAK_]”, the collision cross section turned out to be 429.63 ± 1.4 Å² under setting [20] and 494.01 ± 1.9 Å² under setting [2].
